# Patent US20250326840A1 (QURE BIOTECHNOLOGY SHANGHAI, published 2025)
# T1: QP098 (cyno SIRPα (I7G9Z7) ECD(E31-R369)-flag-his) (cynomolgus)
# T1 construct: the construct carries flag and his tags; also called cynoSIRPα (ECD); cynomolgus SIRPα
# T1 chain: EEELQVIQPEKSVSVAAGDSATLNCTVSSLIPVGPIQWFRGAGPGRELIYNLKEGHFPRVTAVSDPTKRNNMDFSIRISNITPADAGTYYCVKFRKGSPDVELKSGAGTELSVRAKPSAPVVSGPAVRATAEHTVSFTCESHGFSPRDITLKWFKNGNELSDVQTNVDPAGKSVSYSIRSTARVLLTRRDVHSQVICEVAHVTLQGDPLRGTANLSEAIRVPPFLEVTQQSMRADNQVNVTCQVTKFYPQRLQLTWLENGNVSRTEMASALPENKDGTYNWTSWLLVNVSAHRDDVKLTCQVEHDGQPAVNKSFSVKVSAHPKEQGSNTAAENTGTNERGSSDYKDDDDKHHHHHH
# T2: QP100 (cyno SIRPα (G7PGS8) ECD(E29-R368)-flag-his) (cynomolgus)
# T2 construct: the construct carries flag and his tags; also called cynoSIRPα-flag-his; Cynomolgus SIRPα (QP100)
# T2 chain: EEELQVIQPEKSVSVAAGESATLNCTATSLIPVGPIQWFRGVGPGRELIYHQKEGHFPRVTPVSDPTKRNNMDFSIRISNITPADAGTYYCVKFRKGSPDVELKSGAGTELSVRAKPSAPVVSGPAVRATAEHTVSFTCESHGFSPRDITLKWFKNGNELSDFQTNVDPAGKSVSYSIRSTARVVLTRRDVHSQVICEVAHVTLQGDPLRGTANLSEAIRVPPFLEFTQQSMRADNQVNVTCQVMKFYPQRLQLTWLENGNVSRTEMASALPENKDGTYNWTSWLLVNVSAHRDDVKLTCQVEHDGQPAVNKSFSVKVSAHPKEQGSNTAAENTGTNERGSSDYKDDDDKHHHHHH
# T3: QP271 (rhesus SIRPα1-flag-his T-557-28) (rhesus monkey)
# T3 construct: also called rhesus monkey SIRPα (QP271); monkeySIRPα1-flag-his
# T3 chain: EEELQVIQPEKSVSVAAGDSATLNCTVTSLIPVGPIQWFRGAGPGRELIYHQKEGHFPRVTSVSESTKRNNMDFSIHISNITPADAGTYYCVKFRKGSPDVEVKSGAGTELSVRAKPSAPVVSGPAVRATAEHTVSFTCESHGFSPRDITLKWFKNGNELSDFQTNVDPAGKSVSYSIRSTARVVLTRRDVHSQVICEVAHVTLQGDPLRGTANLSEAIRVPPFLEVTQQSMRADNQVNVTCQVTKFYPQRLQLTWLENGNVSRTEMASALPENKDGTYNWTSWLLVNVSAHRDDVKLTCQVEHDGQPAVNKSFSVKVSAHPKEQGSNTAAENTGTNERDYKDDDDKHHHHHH
# T4: QP273 (cynoSIRPα2-flag-his T-557-14) (cynomolgus)
# T4 construct: also called cynomolgus SIRPα (QP273)
# T4 chain: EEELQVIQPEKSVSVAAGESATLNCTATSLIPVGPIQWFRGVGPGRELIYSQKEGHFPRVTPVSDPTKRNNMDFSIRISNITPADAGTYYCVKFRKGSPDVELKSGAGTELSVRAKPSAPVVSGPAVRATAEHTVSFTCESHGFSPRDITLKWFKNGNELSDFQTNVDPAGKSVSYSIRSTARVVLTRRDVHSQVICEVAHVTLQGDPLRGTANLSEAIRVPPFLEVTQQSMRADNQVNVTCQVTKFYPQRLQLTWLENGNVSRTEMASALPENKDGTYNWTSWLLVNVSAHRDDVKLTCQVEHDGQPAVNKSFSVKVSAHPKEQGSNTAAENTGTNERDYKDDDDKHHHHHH
# Key:
# QP002 [1] = biological target: T5, QP002 (biotinylated in the blocking assays, sites not given); experiment: blocking ELISA: QP001.2 (CD47) coated, biotin-QP002 (SIRPα-FC) mixed with the antibody, HRP-streptavidin; blocked ligand: CD47; unit from the x axis Log[Conc.(ug/ml)]
# T5 construct: also called SIRPα-FC; Biotin-QP002
# [2] = biological target: T1, QP098 (cyno SIRPα (I7G9Z7) …); experiment: binding ELISA, antigen coated
# [3] = biological target: T2, QP100 (cyno SIRPα (G7PGS8) …); experiment: binding ELISA, antigen coated
# QP094 (human SIRPα V1 …) [4] = biological target: T6, QP094 (human SIRPα V1 ECD(E31-R370)-flag-his) (human, UniProt P78324 31-370); experiment: binding ELISA, antigen coated
# T6 construct: the construct carries flag and his tags; also called SIRPαV1-flag-his; SIRPαV1-his (QP094)
# [5] = biological target: T3, QP271 (rhesus SIRPα1-flag-his T-557-28); experiment: binding ELISA, antigen coated
# QP096 (human SIRPα V2 …) [6] = biological target: T7, QP096 (human SIRPα V2 ECD(E31-R370)-flag-his) (human); experiment: binding ELISA, antigen coated
# T7 construct: the construct carries flag and his tags; also called SIRPαV2-Flag-his; Human SIRPα V2 (QP096)
# [7] = biological target: T4, QP273 (cynoSIRPα2-flag-his T-557-14); experiment: binding ELISA, antigen coated
# QP002 [8] = biological target: T5, QP002; experiment: blocking ELISA: QP001.2 (CD47) coated, biotin-QP002 (SIRPα-FC) mixed with the antibody, HRP-streptavidin; blocked ligand: CD47
# QP094 (human SIRPα V1 …) [9] = biological target: T6, QP094 (human SIRPα V1 …); experiment: SPR, Biacore
# QP096 (human SIRPα V2 …) [10] = biological target: T7, QP096 (human SIRPα V2 …); experiment: SPR, Biacore
# [11] = biological target: T1, QP098 (cyno SIRPα (I7G9Z7) …); experiment: SPR, Biacore
# [12] = biological target: T3, QP271 (rhesus SIRPα1-flag-his T-557-28); experiment: SPR, Biacore
# [13] = biological target: T4, QP273 (cynoSIRPα2-flag-his T-557-14); experiment: SPR, Biacore
# QP003 (PDL1-his) = experiment: ELISA, QP003 (PDL1-his) captured on coated anti-his, anti-hFc detection; unit from the x axis Log(Conc.(nM))
# Chain of QP003 (PDL1-his) (chain, as listed by the source limits assumed): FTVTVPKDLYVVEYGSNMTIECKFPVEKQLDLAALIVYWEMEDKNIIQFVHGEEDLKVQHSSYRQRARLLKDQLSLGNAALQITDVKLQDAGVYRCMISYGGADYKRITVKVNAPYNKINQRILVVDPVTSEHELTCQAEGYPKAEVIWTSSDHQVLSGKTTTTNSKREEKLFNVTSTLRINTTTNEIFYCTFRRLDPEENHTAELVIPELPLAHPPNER
# T7 sequence (chain, as listed by the source limits assumed): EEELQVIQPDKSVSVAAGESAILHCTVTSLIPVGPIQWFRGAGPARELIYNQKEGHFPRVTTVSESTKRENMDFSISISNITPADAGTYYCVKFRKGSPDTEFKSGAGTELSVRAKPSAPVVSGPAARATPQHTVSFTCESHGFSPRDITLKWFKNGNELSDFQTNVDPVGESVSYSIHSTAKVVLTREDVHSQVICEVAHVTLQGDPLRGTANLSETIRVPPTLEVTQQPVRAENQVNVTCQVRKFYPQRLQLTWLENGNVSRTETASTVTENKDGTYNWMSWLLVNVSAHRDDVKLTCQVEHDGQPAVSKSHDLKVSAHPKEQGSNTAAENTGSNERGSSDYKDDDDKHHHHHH
# T5 sequence (SIRPα-Fc fusion chain, as listed by the source): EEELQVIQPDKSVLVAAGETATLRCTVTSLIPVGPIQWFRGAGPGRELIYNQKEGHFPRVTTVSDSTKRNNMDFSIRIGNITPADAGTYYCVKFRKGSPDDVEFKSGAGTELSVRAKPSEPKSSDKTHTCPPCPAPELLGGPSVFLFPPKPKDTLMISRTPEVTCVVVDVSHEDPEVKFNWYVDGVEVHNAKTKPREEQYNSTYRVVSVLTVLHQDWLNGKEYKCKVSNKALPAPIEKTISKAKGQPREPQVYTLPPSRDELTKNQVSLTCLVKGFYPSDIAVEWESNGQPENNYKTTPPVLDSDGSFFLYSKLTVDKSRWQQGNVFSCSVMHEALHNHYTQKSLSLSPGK
# T6 sequence (P78324 other isoform, or with tags, fused parts or gaps limits assumed): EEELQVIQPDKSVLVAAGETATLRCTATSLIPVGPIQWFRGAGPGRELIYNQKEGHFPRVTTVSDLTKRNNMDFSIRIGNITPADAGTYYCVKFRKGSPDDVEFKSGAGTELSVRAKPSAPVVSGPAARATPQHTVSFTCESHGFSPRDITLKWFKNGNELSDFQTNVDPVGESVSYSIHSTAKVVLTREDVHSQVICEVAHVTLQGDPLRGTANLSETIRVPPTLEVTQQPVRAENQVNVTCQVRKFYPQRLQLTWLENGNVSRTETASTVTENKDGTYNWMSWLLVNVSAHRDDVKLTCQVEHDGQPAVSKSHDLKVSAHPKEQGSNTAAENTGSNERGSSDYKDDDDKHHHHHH
Binder,IC50 (QP002 [1]),EC50 [2],EC50 [3],EC50 (QP094 (human SIRPα V1 …) [4]),EC50 [5],EC50 (QP096 (human SIRPα V2 …) [6]),EC50 [7],IC50 (read off the curve) (QP002 [8]),Kd (QP094 (human SIRPα V1 …) [9]),Kd (QP096 (human SIRPα V2 …) [10]),Kd [11],Kd [12],Kd [13],EC50 (QP003 (PDL1-his))
"QP256291 (antibody, human IgG4, V domains shown, Human IgG4 heavy constant region and kappa CL) VH: QVQLVQSGAEVKKPGASVKVSCKASGYTFTNYWINWVRQAPGQGLEWIAMIDPSDSETHYNQIFKDRATLTTDTSTSTAYMELRSLRSDDTAVYYCAMDYGSLYAMDYWGRGTLVTVSS VL: DIVLTQSPDSLAVSLGERATINCRASKSVGSSGYNWLFWYQQKPGQPPKLLIYLASNRDSGVPDRFSGSGSGTDFTLTISSLQAEDVAVYYCQHSRELPTFGQGTKLEIK",23.4 ng/mL,1.57 ng/mL,1.18 ng/mL,1.86 ng/mL,1.17 ng/mL,1.43 ng/mL,1.62 ng/mL,,,,,,,
"QP2561581 (antibody, human IgG4, V domains shown, Human IgG4 heavy constant region and kappa CL) VH: QVQLVQSGAEVKKPGASVKVSCKASGYTFTNYWINWVRQAPGQGLEWIAMIDPSDSETHYNQIFKDRATLTTDTSTSTAYMELRSLRSDDTAVYYCAMDYGSLYAMDYWGRGTLVTVSS VL: DIVLTQSPDSLAVSLGERATINCRASKSVSSSGYNYIFWYQQKPGQPPKLLIYLASNLDPGVPDRFSGSGSGTDFTLTISSLQAEDVAVYYCQHSRELPTFGQGTKLEIK",,0.918 ng/mL,0.758 ng/mL,1.07 ng/mL,0.555 ng/mL,0.862 ng/mL,0.921 ng/mL,~20 ng/mL,0.137 nM,0.176 nM,,,,
"QP2561771 (antibody, human IgG4, V domains shown, Human IgG4 heavy constant region and kappa CL) VH: QVQLVQSGAEVKKPGASVKVSCKASGYTFTNYWINWVRQAPGQGLEWIAMIDPSDSETHYNQIFKDRATLTTDTSTSTAYMELRSLRSDDTAVYYCAMDYGSLYAMDYWGRGTLVTVSS VL: DIVLTQSPDSLAVSLGERATINCRASKSVSSSGYNWIFWYQQKPGQPPKLLIYLASNRDSGVPDRFSGSGSGTDFTLTISSLQAEDVAVYYCQESRELPTFGQGTKLEIK",23.3 ng/mL,1.08 ng/mL,1.13 ng/mL,1.15 ng/mL,1.13 ng/mL,1.13 ng/mL,1.22 ng/mL,,,,,,,
"QP2561770 (antibody, human IgG4, V domains shown, Human IgG4 heavy constant region and kappa CL) VH: QVQLVQSGAEVKKPGASVKVSCKASGYTFTNYWINWVRQAPGQGLEWIAMIDPSDSETHYNQIFKDRATLTTDTSTSTAYMELRSLRSDDTAVYYCAMDYGSLYAMDYWGRGTLVTVSS VL: DIVLTQSPDSLAVSLGERATINCRASQSVRSSGYNWIFWYQQKPGQPPKLLIYLASNRDSGVPDRFSGSGSGTDFTLTISSLQAEDVAVYYCQESRELPTFGQGTKLEIK",25 ng/mL,1.3 ng/mL,1.01 ng/mL,1.61 ng/mL,1.21 ng/mL,1.36 ng/mL,1.68 ng/mL,,0.0288 nM,0.0368 nM,0.256 nM,0.1 nM,0.163 nM,
"QP2561594 (antibody, human IgG4, V domains shown, Human IgG4 heavy constant region and kappa CL) VH: QVQLVQSGAEVKKPGASVKVSCKASGYTFTNYWINWVRQAPGQGLEWIAMIDPSDSETHYNQIFKDRATLTTDTSTSTAYMELRSLRSDDTAVYYCAMDYGSLYAMDYWGRGTLVTVSS VL: DIVLTQSPDSLAVSLGERATINCRASKSVSSSGYNYIFWYQQKPGQPPKLLIYLASNLDSGVPDRFSGSGSGTDFTLTISSLQAEDVAVYYCQHSRDLPTFGQGTKLEIK",,1.13 ng/mL,0.983 ng/mL,1.12 ng/mL,0.807 ng/mL,1.05 ng/mL,2.35 ng/mL,~20 ng/mL,,,,,,
"QP06260279 (bispecific antibody, human IgG1, kappa, L234A L235A, Anti-PD-L1 VHH-G4S fused to the N-terminus of the heavy chain) heavy: not shown light: DIVLTQSPDSLAVSLGERATINCRASQSVRSSGYNWIFWYQQKPGQPPKLLIYLASNRDSGVPDRFSGSGSGTDFTLTISSLQAEDVAVYYCQHSRELPTFGQGTKLEIKRTVAAPSVFIFPPSDEQLKSGTASVVCLLNNFYPREAKVQWKVDNALQSGNSQESVTEQDSKDSTYSLSSTLTLSKADYEKHKVYACEVTHQGLSSPVTKSFNRGEC",,,,,,,,,,,,,,0.0176 nM
"QP06280279 (bispecific antibody, human IgG1, kappa, L234A L235A, Anti-PD-L1 VHH-(G4S)3 fused to the N-terminus of the heavy chain) heavy: not shown light: DIVLTQSPDSLAVSLGERATINCRASQSVRSSGYNWIFWYQQKPGQPPKLLIYLASNRDSGVPDRFSGSGSGTDFTLTISSLQAEDVAVYYCQHSRELPTFGQGTKLEIKRTVAAPSVFIFPPSDEQLKSGTASVVCLLNNFYPREAKVQWKVDNALQSGNSQESVTEQDSKDSTYSLSSTLTLSKADYEKHKVYACEVTHQGLSSPVTKSFNRGEC",,,,,,,,,,,,,,0.0215 nM
"QP06270279 (bispecific antibody, human IgG1, kappa, L234A L235A, Anti-PD-L1 VHH-(G4S)2 fused to the N-terminus of the heavy chain) heavy: not shown light: DIVLTQSPDSLAVSLGERATINCRASQSVRSSGYNWIFWYQQKPGQPPKLLIYLASNRDSGVPDRFSGSGSGTDFTLTISSLQAEDVAVYYCQHSRELPTFGQGTKLEIKRTVAAPSVFIFPPSDEQLKSGTASVVCLLNNFYPREAKVQWKVDNALQSGNSQESVTEQDSKDSTYSLSSTLTLSKADYEKHKVYACEVTHQGLSSPVTKSFNRGEC",,,,,,,,,,,,,,0.0198 nM
"QP32700623 (bispecific antibody, human IgG1, kappa, L234A L235A, Anti-PD-L1 VHH-G4S fused to the N-terminus of the light chain) heavy: not shown light: EVQLLESGGGLVQPGGSLRLSCAASGFTLDDYAIGWFRQAPGKGREGVSCISKSGETTFFVESVKDRFTISRDNSKNTLYLQMNSLRAEDTAVYYCATGSWCTVGSMSRQFYRQFFHSWGQGTLVTVSSGGGGSDIVLTQSPDSLAVSLGERATINCRASQSVRSSGYNWIFWYQQKPGQPPKLLIYLASNRDSGVPDRFSGSGSGTDFTLTISSLQAEDVAVYYCQHSRELPTFGQGTKLEIKRTVAAPSVFIFPPSDEQLKSGTASVVCLLNNFYPREAKVQWKVDNALQSGNSQESVTEQDSKDSTYSLSSTLTLSKADYEKHKVYACEVTHQGLSSPVTKSFNRGEC",,,,,,,,,,,,,,0.0205 nM
